In PMC5538822, “RNA-dependent stabilization of SUV39H1 at constitutive heterochromatin”:
Positions count from the first letter of the chain named.

Key:
Conditions in all cases: protein: recombinant; tags: MBP; label: 32P
MBP-SUV39H1 42-106 R84A [1] = target: T1, MBP-SUV39H1 42-106 R84A (Homo sapiens, UniProt O43463 42-106, R84A); assay: filter binding; 20 mM Tris-HCl pH 7.4, 50 mM NaCl, 10% glycerol, ~4 U RNase inhibitor, room temperature 10 min; native gel 0.5X TBE at 25 C; filter binding on nitrocellulose in the same buffer
T1 sequence: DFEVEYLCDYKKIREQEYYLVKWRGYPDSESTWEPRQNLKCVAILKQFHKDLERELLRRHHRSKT

MBP-SUV39H1 42-106 R55A [2] = target: T2, MBP-SUV39H1 42-106 R55A (Homo sapiens, UniProt O43463 42-106, R55A); assay: as above
T2 sequence: T1 sequence with R14A, A43R

MBP-SUV39H1 42-106 R84A [3] = target: T1, MBP-SUV39H1 42-106 R84A; assay: EMSA; 20 mM Tris-HCl pH 7.4, 50 mM NaCl, 10% glycerol, ~4 U RNase inhibitor, room temperature 10 min; native gel 0.5X TBE at 25 C; filter binding on nitrocellulose in the same buffer
MBP-SUV39H1 42-106 R55A [4] = target: T2, MBP-SUV39H1 42-106 R55A; assay: as above

Measured: binding signal

AUAUGGGAACCACUGAUCC (ssRNA) [sense 19mer ssRNA]
> 40 fold lower affinity than WT: MBP-SUV39H1 42-106 R84A [1] | MBP-SUV39H1 42-106 R55A [2] | MBP-SUV39H1 42-106 R84A [3] | MBP-SUV39H1 42-106 R55A [4]
